Test results reported in US20180022822A1, “NOVEL ANTI-FIBROBLAST ACTIVATION PROTEIN (FAP) BINDING AGENTS AND USES THEREOF” (Mabimmune Diagnostics AG, priority 2016, published 2018).

Assays:
recombinant human FAP = target: T1, recombinant human FAP (Homo sapiens, UniProt Q12884); experiment: mechanism of inhibition of rhuFAP-mediated PEP (Z-Gly-Pro-AMC) cleavage; assay type: biochemical; settings: 0-1000 nM antibody, 20-100 μM Z-Gly-Pro-AMC; Lineweaver-Burk
T1 construct: purchased Sino Biologicals 10464-H07H
T1 sequence (Q12884 26-760 limits assumed): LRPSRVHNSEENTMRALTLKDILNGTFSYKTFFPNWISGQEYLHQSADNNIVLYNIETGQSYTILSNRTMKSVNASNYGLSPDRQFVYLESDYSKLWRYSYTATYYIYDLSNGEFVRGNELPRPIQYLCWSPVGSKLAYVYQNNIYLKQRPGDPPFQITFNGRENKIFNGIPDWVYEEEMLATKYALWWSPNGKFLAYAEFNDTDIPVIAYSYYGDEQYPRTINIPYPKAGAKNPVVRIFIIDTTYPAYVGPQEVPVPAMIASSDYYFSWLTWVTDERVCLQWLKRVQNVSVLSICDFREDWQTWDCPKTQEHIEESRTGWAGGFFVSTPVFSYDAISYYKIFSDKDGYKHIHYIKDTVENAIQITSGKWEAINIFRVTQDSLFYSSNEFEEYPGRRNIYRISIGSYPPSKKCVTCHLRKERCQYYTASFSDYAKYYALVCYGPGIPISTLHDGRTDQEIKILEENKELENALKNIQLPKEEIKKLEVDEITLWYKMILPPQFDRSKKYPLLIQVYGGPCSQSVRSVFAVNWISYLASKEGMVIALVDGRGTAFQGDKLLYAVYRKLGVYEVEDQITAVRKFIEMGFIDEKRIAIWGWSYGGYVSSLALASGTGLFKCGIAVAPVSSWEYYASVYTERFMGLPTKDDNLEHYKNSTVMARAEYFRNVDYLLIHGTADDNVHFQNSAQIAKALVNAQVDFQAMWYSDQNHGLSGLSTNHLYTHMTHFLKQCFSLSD
Protocol: A black flat bottom standard 96-well ELISA plate was blocked for 1 hr at 37° C. using sterile blocking buffer: 5% bovine serum albumin (BSA) in phosphate buffered saline (PBS). 10 μL of recombinant human FAP solution: 0.4 nM recombinant human FAP (Sino Biologicals, 10464-H07H), in 225 mM Sodium phosphate buffer, pH 7.4) was added to each well. Then, 80 μL of NI-206.82C2 at the indicated concentrations in PBS were added to the wells incubated for 1 hr at 37° C. Then, 10 μL of fluorogenic substrate solution (Z-Gly-Pro-AMC in 40% methanol and 60% 25 […]) was added to each well. The fluorescence intensity was measured at 360 nm excitation and 460 nm emission every 3 min over a total reading time of 2 hr.

MC38 colorectal tumors = experiment: orthotopic syngeneic MC38 colorectal cancer model, MRI; assay type: in vivo, mouse; settings: 20 mg/kg i.p. every 72 hours, 5 cycles, versus PBS
Protocol: […] mice were anesthetized by isofluorane inhalation, and the hepatic portal vein was accessed by median laparotomy (from xiphoid 4 cm caudally). Mice were injected with 1 million murine MC38 colorectal cancer cells. The origin of these cell is described in Science 19 Sep. 1986. MC-38 tumors were allowed to form for 7 days before treatment. Mice were treated with either PBS or NI-206.82C2 (20 mg/kg by intraperitoneal injection) every 72 hours for 5 treatment cycles, before being anesthetized by isofluourane inhalation. Small animal MRI imaging was performed using a Bruker 4.7 Tesla MRI to aquire images of liver metastases. Tumor images were analyzed on Myrian Software (Intrasense) to quantify tumor metastases and cumulative tumor diameter overall tumor burden.

FAP in human plasma = target: T2, FAP in human plasma (Homo sapiens, UniProt Q12884); experiment: immunoprecipitation of FAP from human plasma, α2AP-AMC cleavage; assay type: biochemical; settings: compared to plasma before immunoprecipitation
T2 construct: from tissue; host or cells: human blood plasma
T2 sequence (Q12884 24-760 limits assumed): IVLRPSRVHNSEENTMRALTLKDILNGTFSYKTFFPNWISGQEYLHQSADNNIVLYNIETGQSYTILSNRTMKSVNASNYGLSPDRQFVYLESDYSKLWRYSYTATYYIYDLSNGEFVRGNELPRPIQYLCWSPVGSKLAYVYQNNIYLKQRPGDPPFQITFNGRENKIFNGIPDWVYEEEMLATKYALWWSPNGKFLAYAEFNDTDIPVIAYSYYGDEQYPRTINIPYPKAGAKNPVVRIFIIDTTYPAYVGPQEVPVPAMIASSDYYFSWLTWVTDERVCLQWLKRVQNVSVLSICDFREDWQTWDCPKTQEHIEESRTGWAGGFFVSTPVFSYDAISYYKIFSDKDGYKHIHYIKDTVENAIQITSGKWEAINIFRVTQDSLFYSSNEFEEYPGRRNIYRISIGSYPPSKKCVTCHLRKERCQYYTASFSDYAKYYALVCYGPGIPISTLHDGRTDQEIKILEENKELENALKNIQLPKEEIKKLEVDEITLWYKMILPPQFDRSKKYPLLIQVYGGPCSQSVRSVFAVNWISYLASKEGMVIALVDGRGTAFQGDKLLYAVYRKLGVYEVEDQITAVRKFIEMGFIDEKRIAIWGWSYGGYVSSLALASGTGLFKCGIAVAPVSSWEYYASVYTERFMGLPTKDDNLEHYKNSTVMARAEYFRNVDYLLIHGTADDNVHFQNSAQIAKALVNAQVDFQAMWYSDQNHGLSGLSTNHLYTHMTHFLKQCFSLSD
Protocol: 100 μL of PureProteome G Magnetic Beads (Millipore LSKMAGG02) were suspended in 500 μL of 25 mM TRIS, 0.15M NaCl, and 0.1% Tween 20. Human plasma was diluted 1:5 in PBS to an end volume of 125 μL, separated into four tubes, and incubated for 30 min at RT with rotation. Beads were then collected with a magnetic stand, and the pre-cleared supernatant was transferred to a new tube containing magnetic beads coated with 82C2, 43A11, or 3A1. Antibody-conjugated beads were incubated with the plasma dilution overnight at 4° C. while rotating. Beads were then collected with a magnetic stand and the supernatant was removed of analysis of α2AP-AMC cleavage activity. To determine α2AP-AMC activity in the supernatants, a half area black 96 well plate was blocked with sterile filtered 5% BSA at 37° C. for 1 h. Then 40 μL of PBS was added to all the wells, 5 μL of the supernatant solutions to the appropriate wells, and 5 μL of α2AP-AMC solution in methanol was added for a final assay concentration of 10 μM. The fluorescence intensity (cleaved AMC) was measured at 360 nm excitation and 460 nm emission every 3 min over a total time of 30 min and the reaction velocity was calculated using Graphpad Prism 6 software.

B1: NI-206.82C2: human-derived recombinant anti-FAP antibody; VH SEQ ID NO: 2 or 4 (PIMC), VL SEQ ID NO: 6 (antibody, V domains shown)
VH: QVQLQQSGPGLVKPSQTLSLTCAISGDSVSSNSVTWNWIRQSPSRGLEWLGRTYYRSKWYNDYAVSVKGRITINPDTSKNQFYLQLKSVTPEDAAVYYCARDSSILYGDYWGQGTLVTVSS
VL: QAVLTQPSSLSASPGASASLTCTLPSGINVGTYRIFWFQQKPGSPPQYLLSYKSDSDNHQGSGVPSRFSGSKDASANAGILLISGLQSEDEADYYCMIWHSSAWVFGGGTKLTVL
Recombinant human FAP
  type of inhibition of FAP-mediated PEP cleavage: non-competitive inhibitor
MC38 colorectal tumors
  cumulative tumor diameter: reduced
  number of metastases: reduced
FAP in human plasma
  rate of α2AP-AMC cleavage in plasma after immunoprecipitation: significantly reduces
